Experimental data reported in the RNAGym collection of RNA variant scans (doi:10.7554/elife.80360).

B1: Twister Ribozyme (parent)
chain: AACACUGCCAAUGCCGGUCCCAAGCCCGGAUAAAAGUGGAGGGGGCGG

Variants of: B1
Test: self-cleavage, relative activity (ratio to wild type); higher = more cleavage; co-transcriptional

Row | Variant | self-cleavage
1 | A30U C46A | 0.872
2 | A34C C46A | 0.142
3 | U31A A32C | 1.09
4 | U31A A32U | 1.05
5 | A32G G45U | 0.668
6 | A32G G45A | 0.921
7 | A33C G48U | 1.04
8 | U31G G39U | 0.203
9 | A32C G38U | 0.723
10 | U31A G45A | 0.727
11 | U31A G45U | 0.619
12 | A34U G39C | 0.138
13 | A35C G39U | 0.144
14 | U31G G47A | 0.782
15 | U31G G47C | 0.755
16 | A33G A40G | 0.195
17 | A33G A40C | 0.17
18 | U31A G42C | 0.503
19 | U31A G42A | 0.349
20 | A35G G47A | 0.706
21 | A32U G41A | 0.488
22 | A34G G47C | 0.193
23 | A34G G47U | 0.553
24 | A34C G47C | 0.177

Row | Variant | self-cleavage
25 | A32C G43C | 0.153
26 | A32C G43A | 0.242
27 | A34C A40U | 0.0943
28 | A34C A40C | 0.122
29 | U31G G36U | 0.374
30 | A33G G48A | 0.856
31 | A33G G48C | 1.07
32 | A33G G48U | 0.903
33 | A33G G44C | 0.752
34 | A33G G44U | 0.86
35 | A33C G41C | 0.151
36 | A33C G41A | 0.309
37 | A32G C46A | 0.753
38 | A32G C46G | 0.854
39 | A32G C46U | 0.933
40 | A33U A34G | 0.76
41 | A33C G44U | 0.97
42 | U31A A33G | 0.82
43 | U31A A33U | 0.935
44 | U31C C46A | 0.733
45 | U31C C46U | 0.788
46 | U31C C46G | 0.923
47 | A35C G45C | 0.472
48 | A35G G39C | 0.178

Row | Variant | self-cleavage
49 | A30U G38A | 0.987
50 | A32C A33G | 0.945
51 | U31G C46G | 0.852
52 | U31G C46U | 0.928
53 | A33G G47U | 0.927
54 | A33G G47A | 0.75
55 | A32G A34C | 0.137
56 | A32G A33G | 0.654
57 | A32G G36A | 0.618
58 | A32U A35C | 1.01
59 | A32U A35G | 0.746
60 | A33G G41C | 0.197
61 | A34U G38A | 0.654
62 | A34U G38C | 0.638
63 | A34C G44U | 0.165
64 | A34C G44A | 0.385
65 | A34C G44C | 0.156
66 | A33U A40G | 0.154
67 | U31C G41A | 0.539
68 | U31C G41C | 0.306
69 | A34C G36C | 0.104
70 | A34C G36A | 0.0949
71 | A34C G36U | 0.084
72 | A33C G43A | 0.17

Row | Variant | self-cleavage
73 | A35C A40U | 0.142
74 | A35C A40G | 0.18
75 | A34G G42U | 0.131
76 | A34G G36C | 0.179
77 | A32U G48A | 0.942
78 | A33U G41C | 0.18
79 | A33U G41U | 0.489
80 | A33U G41A | 0.472
81 | U31A G44C | 0.711
82 | U31A A40U | 0.136
83 | U31A A40G | 0.0937
84 | A34U G48A | 0.703
85 | A34U G48U | 0.811
86 | A34G G39A | 0.133
87 | A32U G38U | 0.94
88 | A32U G38A | 0.85
89 | A33C U37A | 0.447
90 | A33U G44U | 0.897
91 | A34U G43C | 0.186
92 | A34U G43U | 0.193
93 | A35C G42C | 0.381
94 | A34G G45A | 0.721
95 | A34G G45U | 0.553
96 | A35C G47C | 0.574

Row | Variant | self-cleavage
97 | A34G U37C | 0.0836
98 | A34G U37G | 0.314
99 | A32U G42A | 0.324
100 | A32U G42C | 0.437
101 | A32C G36A | 0.473
102 | A32C G36C | 0.283
103 | A34G G48A | 0.645
104 | A34G G48C | 0.791
105 | A33C A34G | 0.82
106 | A33C A34C | 0.383
107 | A33U G43A | 0.233
108 | A33U G43C | 0.101
109 | A32G U37A | 0.752
110 | A32G U37C | 0.844
111 | A33U G45U | 0.843
112 | A33U G45A | 0.884
113 | A35G U37A | 0.574
114 | A35U | 0.969
115 | A35C | 0.962
116 | A35G | 0.864
117 | A35G G45A | 0.889
118 | A35G G45U | 0.659
119 | A30U G47U | 0.954
120 | A30U G47A | 0.927

Row | Variant | self-cleavage
121 | U31G A33C | 1.03
122 | U31G A33U | 0.876
123 | A35G G43A | 0.152
124 | A30U G42A | 0.464
125 | A34U G45C | 0.295
126 | A34U G45A | 0.815
127 | A30U G36A | 0.762
128 | A30U G36U | 0.294
129 | A33C G39A | 0.438
130 | A34U C46A | 0.76
131 | U31C G43C | 0.194
132 | U31C G43A | 0.323
133 | A32G G47C | 0.473
134 | A32U A40U | 0.193
135 | U31A U37A | 0.721
136 | U31A U37C | 0.591
137 | U31A U37G | 0.659
138 | U31G A32G | 0.836
139 | U31G A32C | 0.946
140 | A35C G43A | 0.235
141 | A35C G43C | 0.206
142 | U31A A35G | 0.803
143 | U31A A35U | 1.09
144 | U31A A35C | 0.889

Row | Variant | self-cleavage
145 | U31A G41U | 0.55
146 | U31C G36C | 0.635
147 | U31C G36U | 0.321
148 | A32G G41A | 0.518
149 | A32G G41U | 0.609
150 | A32G G41C | 0.211
151 | A35C U37C | 0.592
152 | A35C U37A | 0.702
153 | A35G C46U | 0.854
154 | A35G C46G | 0.868
155 | U31G U37A | 0.818
156 | U31G U37C | 0.634
157 | A30U U31G | 0.993
158 | A30U U31C | 1.02
159 | A32C A34C | 0.329
160 | A33G A35C | 0.858
161 | A33G G43A | 0.268
162 | A33G G43C | 0.144
163 | A30U G45A | 0.817
164 | A30U G45U | 0.798
165 | A30U G45C | 0.661
166 | A32C C46A | 0.837
167 | A32C C46G | 1.03
